We go through 20 molecules from patent US20200181257A1 (Chugai, published 2020).

Changes are numbered by the printed parent chain. Names and notes keep the numbering of the source.

Holding throughout (test): SPR, antibody captured on Protein A
In general terms: SPR reads the build-up and loss of mass on a sensor chip optically.

In assay [1] the target is T1, human Fcγ receptor hFcgRIa (human, UniProt P12314 16-292, limits assumed).
T1 construct: Construct used in the SPR assay is not described; also called hFcγRIa; FcγI
T1 sequence (P12314 16-292 limits assumed): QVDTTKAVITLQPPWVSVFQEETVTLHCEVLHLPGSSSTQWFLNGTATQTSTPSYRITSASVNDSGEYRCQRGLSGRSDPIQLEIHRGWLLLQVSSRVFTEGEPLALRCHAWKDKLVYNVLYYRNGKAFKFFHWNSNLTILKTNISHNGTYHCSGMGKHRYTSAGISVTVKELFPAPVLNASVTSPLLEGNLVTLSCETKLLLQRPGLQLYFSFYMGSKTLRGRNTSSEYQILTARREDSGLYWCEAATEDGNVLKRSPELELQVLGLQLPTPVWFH
The method, then:
(§1) Furthermore, binding ability to hFcgRs was measured by the method described in Reference Example 3.
(§2) Interactions between antibodies and hFcgRs (hFcgRIa, hFcgRIIa(R), hFcgRIIa(H), hFcgRIIb, hFcgRIIIa(F), and hFcgRIIIa(V)) were analyzed using Biacore T100 (GE Healthcare). HBS-EP+(GE Healthcare) was used for the running buffer, and the measurement temperature was set at 25° C. Protein A (Invitrogen) was immobilized by the amino coupling method, and an antibody of interest was captured thereon. Then, hFcγR solutions diluted using the running buffer were injected to allow interaction with the captured antibody at a flow rate of 30 μL/min for five minutes for hFcγRIa, and at a flow rate of 5 μL/min for one minute for the other hFcγRs. […] Since the hFcγR binding level depends on the amount of captured antibodies, the FcgR-binding levels were corrected so that the capture level of each antibody would be 200 RU (resonance unit) for hFcgRIa and 1000 RU (resonance unit) for the other hFcgRs. The captured antibodies were washed by allowing 10 mM glycine-HCl (pH 1.5) to react for 30 seconds at a flow rate of 30 μL/min to recycle the chip for reuse.

Assay [2] concerns the target T2, human Fcγ receptor hFcgRIIa (R) (human, UniProt P12318 36-217).
T2 construct: also called FcγRIIa (type R); FcγIIA
T2 chain: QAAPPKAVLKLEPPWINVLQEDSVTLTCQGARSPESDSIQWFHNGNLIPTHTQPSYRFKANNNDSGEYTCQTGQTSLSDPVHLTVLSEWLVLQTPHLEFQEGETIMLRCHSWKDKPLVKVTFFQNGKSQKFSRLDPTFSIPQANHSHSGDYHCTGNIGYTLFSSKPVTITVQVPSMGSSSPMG
The method, then:
as §1, §2

The target of assay [3] is T3, human Fcγ receptor hFcgRIIb (human, UniProt P31994 43-217, limits assumed).
T3 construct: Construct used in the SPR assay is not described; also called FcγRIIb; FcγIIB
T3 sequence: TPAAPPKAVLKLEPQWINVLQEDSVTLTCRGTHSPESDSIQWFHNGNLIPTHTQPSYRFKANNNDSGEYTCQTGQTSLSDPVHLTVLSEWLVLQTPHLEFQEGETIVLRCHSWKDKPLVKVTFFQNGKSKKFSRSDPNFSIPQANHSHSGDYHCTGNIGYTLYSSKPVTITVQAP
The method, then:
as §1, §2

The target of assay [4] is T4, human Fcγ receptor hFcgRIIa (H) (human, UniProt P12318 36-217).
T4 construct: also called FcγRIIa (type H); FcγIIA
T4 sequence: T2 chain with R133H
The method, then: as §1, §2

Assay [5] deals with T5, human Fcγ receptor hFcgRIIIa (V) (human, UniProt P08637 17-208).
T5 construct: also called FcγRIIIa allotype V158; FcγIIIA
T5 sequence (P08637 other isoform, or with tags, fused parts or gaps limits assumed): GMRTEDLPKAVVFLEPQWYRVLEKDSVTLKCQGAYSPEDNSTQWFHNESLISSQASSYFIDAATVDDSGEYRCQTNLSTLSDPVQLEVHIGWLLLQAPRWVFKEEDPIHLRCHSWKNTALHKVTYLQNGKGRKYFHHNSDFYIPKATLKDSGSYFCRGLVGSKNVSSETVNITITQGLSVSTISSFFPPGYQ
The protocol: as §1, §2

B1: TS20 (antibody)
heavy: QVQLQESGPGLVRPSQTLSLTCTVSGYSITSDHAWSWVRQPPGRGLEWIGYISYSGITTYNPSLKSRVTMLRDTSKNQFSLRLSSVTAADTAVYYCARSLARTTAMDYWGQGSLVTVSSASTKGPSVFPLAPSSKSTSGGTAALGCLVKDYFPEPVTVSWNSGALTSGVHTFPAVLQSSGLYSLSSVVTVPSSSLGTQTYICNVNHKPSNTKVDKKVEPKSCDKTHTCPPCPAPELLGGPSVFLFPPKPKDTLMISRTPEVTCVVVDVSHEDPEVKFNWYVDGVEVHNAKTKPREEMYNSTYRVVSVLTVLHQDWLNGKEYKCKVSNSALPHPIEKTISKAKGQPREPQVYTLPPSRDELTKNQVSLTCLVKGFYPSDIAVEWESNGQPENNYKTTPPVLDSDGSFFLYSKLTVDKSRWQQGNVFSCSVMHEALHNHYTQKSLSLSP
light: not shown
notes: anti-IL6R IgG1, G1d with Q295M/K326S/A330H (EU)
On to B1, for which the “binding relative to G1 (=100)” value was found to be 106 in assay [1]; 116 in assay [2]; 131 in assay [3]; 132 in assay [4]; 91.2 in assay [5].

B2: TS26 (antibody)
heavy: B1 heavy with M297L, H332Y
light: not shown
notes: anti-IL6R IgG1, G1d with Q295L/K326S/A330Y (EU)
Consider B2, for which the “binding relative to G1 (=100)” value in assay [1] amounted to 107; in assay [2], 145; in assay [3], 208; in assay [5], 134.

B3: TS29 (antibody)
heavy: B1 heavy with L236K, L237K, S241K, H270K, D272F, Y298G, S300G, N327H, S328K, H332A
light: not shown
notes: anti-IL6R IgG1, G1d with L234K/L235K/S239K/H268K/D270F/Q295M/Y296G/S298G/N325H (EU)
Take B3: the “binding relative to G1 (=100)” value in assay [1] is 5.1; in assay [2], 2.1; in assay [4] it was 0.7; in assay [5], 1.6.

B4: TS23 (antibody)
heavy: B1 heavy with M297L, S328A, H332Y
light: not shown
notes: anti-IL6R IgG1, G1d with Q295L/K326A/A330Y (EU)
Take B4: the “binding relative to G1 (=100)” value was determined as 153 in assay [2], 226 in assay [3], 145 in assay [4] and 137 in assay [5].

B5: TS35 (antibody)
heavy: B1 heavy with L236K, L237K, Y298G, S300G, N327H, S328K, H332A
light: not shown
notes: anti-IL6R IgG1, G1d with L234K/L235K/Q295M/Y296G/S298G/N325H (EU)
Regarding B5, the “binding relative to G1 (=100)” value in assay [1] turned out to be 0.5; in assay [2] it was 1.1; in assay [4], 1.7; in assay [5], 1.5.

B6: TS37 (antibody)
heavy: B1 heavy with L236K, L237R, S241K, H270K, D272F, Y298G, S300G, N327H, S328K, H332A
light: not shown
notes: anti-IL6R IgG1, G1d with L234K/L235R/S239K/H268K/D270F/Q295M/Y296G/S298G/N325H (EU)
For B6, the “binding relative to G1 (=100)” value in assay [1] worked out at 0.6; in assay [2] it was 0.9; in assay [3] it was 4.5; in assay [4], 0.7; in assay [5], 0.6.

B7: TS22 (antibody)
heavy: B1 heavy with M297L
light: not shown
notes: anti-IL6R IgG1, G1d with Q295L/K326S/A330H (EU)
As for B7, the “binding relative to G1 (=100)” value in assay [1] came out at 108; in assay [2], 153; in assay [3], 232; in assay [4], 157; in assay [5], 107.

B8: TS28 (antibody)
heavy: B1 heavy with L236K, L237K, S241K, H270K, D272F, Y298G, S300G, N327G, S328K, H332A
light: not shown
notes: anti-IL6R IgG1, G1d with L234K/L235K/S239K/H268K/D270F/Q295M/Y296G/S298G/N325G (EU)
For B8, the “binding relative to G1 (=100)” value worked out at 5.8 in assay [1], 1.9 in assay [2], 1.7 in assay [4] and 1.7 in assay [5].

B9: TS38 (antibody)
heavy: B1 heavy with L236K, L237R, S241K, Y298G, S300G, N327G, S328K, H332A
light: not shown
notes: anti-IL6R IgG1, G1d with L234K/L235R/S239K/Q295M/Y296G/S298G/N325G (EU)
For B9, the “binding relative to G1 (=100)” value was determined as 0.3 in assay [1], 2.3 in assay [2], 1.7 in assay [4] and 0.9 in assay [5].

B10: TS36 (antibody)
heavy: B1 heavy with L236K, L237R, S241K, H270K, D272F, Y298G, S300G, N327G, S328K, H332A
light: not shown
notes: anti-IL6R IgG1, G1d with L234K/L235R/S239K/H268K/D270F/Q295M/Y296G/S298G/N325G (EU)
Take B10: the “binding relative to G1 (=100)” value was -0.4 in assay [1]; 1 in assay [2]; 4.1 in assay [3]; 0.7 in assay [4]; 1.1 in assay [5].

B11: TS33 (antibody)
heavy: B1 heavy with L236K, L237K, H270K, D272F, Y298G, S300G, N327H, S328K, H332A
light: not shown
notes: anti-IL6R IgG1, G1d with L234K/L235K/H268K/D270F/Q295M/Y296G/S298G/N325H (EU)
For the molecule B11, the “binding relative to G1 (=100)” value is -0.9 in assay [1]; 1.2 in assay [2]; 4.6 in assay [3]; 0.7 in assay [4]; 1 in assay [5].

B12: TS39 (antibody)
heavy: B1 heavy with L236K, L237R, S241K, Y298G, S300G, N327H, S328K, H332A
light: not shown
notes: anti-IL6R IgG1, G1d with L234K/L235R/S239K/Q295M/Y296G/S298G/N325H (EU)
With B12, the “binding relative to G1 (=100)” value in assay [1] was 0; in assay [2] it was 1.5; in assay [3] it was 2.5; in assay [4], 1; in assay [5], 0.8.

B13: TS32 (antibody)
heavy: B1 heavy with L236K, L237K, H270K, D272F, Y298G, S300G, N327G, S328K, H332A
light: not shown
notes: anti-IL6R IgG1, G1d with L234K/L235K/H268K/D270F/Q295M/Y296G/S298G/N325G (EU)
With B13, the “binding relative to G1 (=100)” value was -0.5 in assay [1]; 0.9 in assay [2]; 1.5 in assay [3]; 1 in assay [4]; 0.9 in assay [5].

B14: TS21 (antibody)
heavy: B1 heavy with S328A, H332Y
light: not shown
notes: anti-IL6R IgG1, G1d with Q295M/K326A/A330Y (EU)
Consider B14, for which the “binding relative to G1 (=100)” value in assay [1] was found to be 107; in assay [2], 113; in assay [3], 121; in assay [5], 124.

B15: TS27 (antibody)
heavy: B1 heavy with M297L, S328A
light: not shown
notes: anti-IL6R IgG1, G1d with Q295L/K326A/A330H (EU)
Consider B15, for which the “binding relative to G1 (=100)” value in assay [1] was 106; in assay [2] it was 158; in assay [3] it was 242; in assay [4], 151.

B16: TS30 (antibody)
heavy: B1 heavy with L236K, L237K, S241K, Y298G, S300G, N327G, S328K, H332A
light: not shown
notes: anti-IL6R IgG1, G1d with L234K/L235K/S239K/Q295M/Y296G/S298G/N325G (EU)
With B16, the “binding relative to G1 (=100)” value in assay [1] came to 0.1; in assay [2], 1.2; in assay [3] it was 3.8; in assay [4], 0.2; in assay [5] it was 1.1.

B17: TS25 (antibody)
heavy: B1 heavy with S328A
light: not shown
notes: anti-IL6R IgG1, G1d with Q295M/K326A/A330H (EU)
Regarding B17, the “binding relative to G1 (=100)” value in assay [1] came to 105; in assay [2], 123; in assay [3] it was 137; in assay [4] it was 125; in assay [5], 92.8.

B18: TS34 (antibody)
heavy: B1 heavy with L236K, L237K, Y298G, S300G, N327G, S328K, H332A
light: not shown
notes: anti-IL6R IgG1, G1d with L234K/L235K/Q295M/Y296G/S298G/N325G (EU)
As for B18, the “binding relative to G1 (=100)” value in assay [1] is -0.9; in assay [2], 0.9; in assay [3] it was 4.2; in assay [4], 1.4; in assay [5] it was 1.5.

B19: TS31 (antibody)
heavy: B1 heavy with L236K, L237K, S241K, Y298G, S300G, N327H, S328K, H332A
light: not shown
notes: anti-IL6R IgG1, G1d with L234K/L235K/S239K/Q295M/Y296G/S298G/N325H (EU)
As for B19, the “binding relative to G1 (=100)” value in assay [1] was 0.2; in assay [2], 1.3; in assay [3], 3.6; in assay [4], -0.5; in assay [5], 1.2.

B20: TS24 (antibody)
heavy: B1 heavy with H332Y
light: not shown
notes: anti-IL6R IgG1, G1d with Q295M/K326S/A330Y (EU)
Consider B20, for which the “binding relative to G1 (=100)” value in assay [1] is 107; in assay [2] it was 107; in assay [3] it was 114; in assay [4], 122; in assay [5], 121.
